Experimental data: paper PMC3320615, “β-Microseminoprotein Endows Post Coital Seminal Plasma with Potent Candidacidal Activity by a Calcium- and pH-Dependent Mechanism” (PLoS Pathogens, 2012)

Legend:
[1] = system: Candida albicans ATCC 90028; assay: CFU assay with C. albicans; type: cell-based; conditions: for Estimate (difference between means of log values): control - treatment, pH 4
In short: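 About 4×10^3–10^4 CFU of C. albicans (ATCC 90028 unless stated) exposed to test substance in 10 mM Tris, 5 mM glucose at pH 7.4 or pH 4 for 4 h at 37 °C. Survivors counted as colonies after 2 days at 30 °C; log counts compared with control.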

[2] = Liposome leakage (carboxyfluorescein release); type: biochemical; conditions: pH 6.0, % ± SD of leakage with Triton X-100, CF fluorescence 520 nm, 37°C, at least triplicate, DOPC/cholesterol liposomes
Procedure: Dry lipid films were prepared by dissolving dioleoylphosphatidylcholine (1,2-dioleoyl-sn-Glycero-3-phoshocholine, >99% purity, Avanti Polar Lipids, Alabaster, AL) (60 mol%) (DOPC) and either ergosterol or cholesterol (both >99% purity, Sigma) (40 mol%) in chlorofom, and then removing the solvent by evaporation under vacuum overnight. Subsequently, buffer (10 mM Tris, pH 7.4) was added together with 0.1 M carboxyfluorescein (CF) (Sigma, St Louis, MO). After hydration, the lipid mixture was subjected to eight freeze-thaw cycles consisting of freezing in liquid nitrogen and heating to 60°C. Unilamellar liposomes of about Ø140 nm were generated by multiple extrusions through polycarbonate filters (pore size 100 nm) mounted in a LipoFastminiextruder (Avestin, Ottawa, Canada) at 22°C. Untrapped CF was then removed by two gel filtrations (Sephadex G-50) at 22°C, with Tris buffer as eluent. CF release was determined by monitoring the emitted fluorescence at 520 nm from liposome dispersions (10 mM lipid in 10 mM Tris). An absolute leakage scale was obtained by disrupting the liposomes at the end of the experiment through addition of 0.8 mM Triton X100 (Sigma, St Louis, MO), causing 100% release and dequenching of CF. Although calcein is frequently used for pH-dependent leakage studies, the high charge of this dye has been noted to influence its leakage behavior in the presence of highly cationic peptides. Instead, therefore, CF was used as a leakage marker at both pH 6.0 and 7.4, avoiding pH-dependent fluorescence effects through neutralization prior to probing the limiting leakage in case of pH 6.0 leakage. Throughout, a SPEX-fluorolog 1650 0.22-m double spectrometer (SPEX Industries, Edison, NJ) was used for the liposome leakage assay. Measurements were performed in at least triplicate at 37°C.

B1: β-microseminoprotein (natural protein, human, UniProt P08118 21-114, looked up)
chain: SCYFIPNEGVPGDSTRKCMDLKGNKHPINSEWQTDNCETCTCYETEISCCTLVSTPVGYDKDNCQRIFKKEDCKYIVVEKKDPKKTCSVSEWII
notes: human β-microseminoprotein (MSP, PSP94), native protein purified from seminal plasma; also called MSP; PSP94
- Estimate (difference between means of log values) ([1]; 25 µM MSP + 25 µM EDTA + 0.5 mM calcium, experiment 1): -0.9947
- Estimate (difference between means of log values) ([1]; 25 µM MSP + 25 µM EDTA + 0.5 mM calcium, experiment 2): -0.9876
- Estimate (difference between means of log values) ([1]; 25 µM MSP + 25 µM EDTA + 0.5 mM calcium, experiment 3): -1.0805
- Estimate (difference between means of log values) ([1]; 25 µM MSP + 25 µM EDTA + 0.5 mM magnesium, experiment 1): 1.9399
- Estimate (difference between means of log values) ([1]; 25 µM MSP + 25 µM EDTA + 0.5 mM magnesium, experiment 2): 2.1624
- Estimate (difference between means of log values) ([1]; 25 µM MSP + 25 µM EDTA + 0.5 mM magnesium, experiment 3): 1.6349
- Estimate (difference between means of log values) ([1]; 25 µM MSP + 25 µM EDTA, experiment 1): 4.1638
- Estimate (difference between means of log values) ([1]; 25 µM MSP + 25 µM EDTA, experiment 2): 4.7089
- Estimate (difference between means of log values) ([1]; 25 µM MSP + 25 µM EDTA, experiment 3): 4.1911
- Estimate (difference between means of log values) ([1]; 25 µM, experiment 1): -0.06377
- Estimate (difference between means of log values) ([1]; 25 µM, experiment 2): -0.4481
- Estimate (difference between means of log values) ([1]; 25 µM, experiment 3): -0.4892
- Fungicidal activity in CFU assay ([1]; native MSP 10 µM + 20 µM EDTA or recombinant dialyzed MSP 10 µM + 10 µM EDTA): prominent fungicidal activity
- Candidacidal activity in CFU assay ([1]; neutral and acidic pH, without EDTA): no candidacidal activity
- Liposome leakage ([2]; +EDTA): 4±2%
- Liposome leakage ([2]; without EDTA): 0%
